Data taken from patent US6140052, “cMYC is regulated by Tcf-4” (The Johns Hopkins University, dated 1998).

T1: hTcf-4 (endogenous, in nuclear extracts or cells) (human)
T1 chain: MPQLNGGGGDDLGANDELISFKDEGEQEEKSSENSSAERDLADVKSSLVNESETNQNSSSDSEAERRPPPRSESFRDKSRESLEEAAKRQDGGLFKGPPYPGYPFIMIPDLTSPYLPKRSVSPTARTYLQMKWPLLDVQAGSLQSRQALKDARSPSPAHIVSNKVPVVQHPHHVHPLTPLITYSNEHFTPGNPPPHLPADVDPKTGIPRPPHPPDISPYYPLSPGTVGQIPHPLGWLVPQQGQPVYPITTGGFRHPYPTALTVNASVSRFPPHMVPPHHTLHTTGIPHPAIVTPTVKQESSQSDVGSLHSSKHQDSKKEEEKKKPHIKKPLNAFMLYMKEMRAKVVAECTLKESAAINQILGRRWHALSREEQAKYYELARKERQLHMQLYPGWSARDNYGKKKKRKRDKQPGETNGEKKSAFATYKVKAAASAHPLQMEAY


Key:
[1] = target: Myc-tagged hTcf-4 (epitope-tagged hTcf-4 in expression vector pCDNA) (human)
[2] = target: T1, hTcf-4 (endogenous, in nuclear extracts …); test: gel retardation of nuclear extracts of HT29-APC1 cells after 20 h Zn++ induction of APC
Procedure: Figure 2C: Figure 4: FIG. 4. Constitutive presence of β-catenin-hTcf-4 complexes in APC^{-/-} cells. Gel retardation assays were performed on nuclear extracts from the indicated cell lines before and after a 20-hour exposure to Zn^++. Samples in lanes 1, 4, 7, 10 were incubated under standard conditions. To the samples in lanes 2, 5, 8, 11, 0.25 μg, anti β-catenin was added. To the samples in lanes 3, 6, 9, 12, 0.25 μg of a control (human CD4) antibody was added. N.S., nonspecific band also observed with mutant (nonbinding) probe (lane Mt).
Gel retardation assays were performed as described elsewhere (7). Extracts were prepared from intact nuclei that were washed four times to avoid contamination with cytoplasmic β-catenin. As the optimal Tcf/Lef probe, we used a double-stranded 15-mer […] (SEQ ID NO: 12); the control probe was […] (SEQ ID NO:13). (All oligonudeotides were from Isogene, Holland). The β-catenin antibody was purchased from Transduction Laboratories (Lexington, Ky.). A typical binding reaction contained 3 μg nuclear protein, 0.1 ng radiolabeled probe, 100 ng of dIdC, in 25 μl of binding buffer (60 mm KCl, 1 mM EDTA, 1 mM DTT, 10% glycerol). Samples were incubated for 20 min at room temperature, antibody was added, and the samples incubated 20 min further.

| CRT reporter activity in 293 cells cotransfected with a Tcf-4 expression vector [1] [fold] | decrease of the complex relative to uncomplexed hTcf-4 after Zn++ induction of APC [2] [fold] | Molecule |
| --- | --- | --- |
| 6 | – | β-Cat Δ45 (mutant β-catenin from HCT116, deletion of Ser-45) (from UniProt P35222) |
| 6 | – | β-Cat S33Y (mutant β-catenin from SW48) (from UniProt P35222) |
| – | 6 | β-catenin (endogenous, human colorectal cancer cell lines HT29, SW480) (other) ATQADLMELDMAMEPDRKAAVSHWQQQSYLDSGIHSGATTTAPSLSGKGNPEEEDVDTSQVLYEWEQGFSQSFTQEQVADIDGQYAMTRAQRVRAAMFPETLDEGMQIPSTQFDAAHPTNVQRLAEPSQMLKHAVVNLINYQDDAELATRAIPELTKLLNDEDQVVVNKAAVMVHQLSKKEASRHAIMRSPQMVSAIVRTMQNTNDVETARCTAGTLHNLSHHREGLLAIFKSGGIPALVKMLGSPVDSVLFYAITTLHNLLLHQEGAKMAVRLAGGLQKMVALLNKTNVKFLAITTDCLQILAYGNQESKLIILASGGPQALVNIMRTYTYEKLLWTTSRVLKVLSVCSSNKPAIVEAGGMQALGLHLTDPSQRLVQNCLWTLRNLSDAATKQEGMEGLLGTLVQLLGSDDINVVTCAAGILSNLTCNNYKNKMMVCQVGGIEALVRTVLRAGDREDITEPAICALRHLTSRHQEAEMAQNAVRLHYGLPVVVKLLHPPSHWPLIKATVGLIRNLALCPANHAPLREQGAIPRLVQLLVRAHQDTQRRTSMGGTQQQFVEGVRMEEIVEGCTGALHILARDVHNRIVIRGLNTIPLFVQLLYSPIENIQRVAAGVLCELAQDKEAAEAIEAEGATAPLTELLHSRNEGVATYAAAVLFRMSEDKPQDYKKRLSVELTSSLFRTEPMAWNETADLGLDIGAQGEPLGYRQDDPSYRSFHSGGYGQDALGMDPMMEHEMGGHHPGADYPVDGLPDLGHAQDLMDGLPPGDSNQLAWFDTDL |
